Data taken from article PMC7642358 (Nature Communications, 2020).

Molecular target: SARS-CoV-2 spike receptor-binding domain (2019-nCoV RBD-SD1, residues 319–566) (SARS-CoV-2, UniProt P0DTC2)

Row | Binder | binding result
1 | Sybody 1 (VHH) VHH: QVQLVESGGGLVQAGGSLRLSCAASGFPVNTSEMAWYRQAPGKEREWVAAIESSGDETYYADSVKGRFTISRDNAKNTVYLQMNSLKPEDTAVYYCYVYVGGSYLGQGTQVTVS | binds
2 | Sybody 2 (VHH) VHH: QVQLVESGGGLVQAGGSLRLSCAASGFPVSNEEMTWYRQAPGKEREWVAAIASNGNQTEYADSVKGRFTISRDNAKNTVYLQMNSLKPEDTAVYYCYVYVGASYIGQGTQVTVS | binds
3 | Sybody 3 (VHH) VHH: QVQLVESGGGLVQAGGSLRLSCAASGFPVSHTEMTWYRQAPGKEREWVAAIESQGVYTHYADSVKGRFTISRDNAKNTVYLQMNSLKPDDTAVYYCYVYVGGGYIGQGTQVTVS | binds
4 | Sybody 4 (VHH) VHH: QVQLVESGGGLVQAGGSLRLSCAASGFPVNGFNMEWYRQAPGKEREWVAAITSEGNYTYYADSVKGRFTISRDNAKNTVYLQMNSLKPEDTAVYYCYVYVGQSYIGQGTQVTVS | binds
5 | Sybody 5 (VHH) VHH: QVQLVESGGGLVQAGGSLRLSCAASGFPVAQQEMTWYRQAPGKEREWVAAISSIGSITHYADSVKGRFTISRDNAKNTVYLQMNSLKPEDTAVYYCYVYVGASYIGQGTQVTVS | binds
6 | Sybody 6 (VHH) VHH: QVQLVESGGGLVQAGGSLRLSCAASGFPVNHTRMYWYRQAPGKEREWVAAIQSHGQNTFYADSVKGRFTISRDNAKNTVYLQMNSLKPEDTAVYYCYVWVGNQYWGQGTQVTVS | binds
7 | Sybody 7 (VHH) VHH: QVQLVESGGGLVQAGGSLRLSCAASGFPVNAEEMEWYRQAPGKEREWVAAISSSGDWTYYADSVKGRFTISRDNAKNTVYLQMNSLKPEDTAVYYCLVYVGSTYIGQGTQVTVS | binds
8 | Sybody 8 (VHH) VHH: QVQLVESGGGLVQAGGSLRLSCAASGFPVKSYEMEWYRQAPGKEREWVAAISSYGEYTEYADSVKGRFTISRDNAKNTVYLQMNSLKPEDTAVYYCYVWVGDSYLGQGTQVTVS | binds
9 | Sybody 9 (VHH) VHH: QVQLVESGGGLVQAGGSLRLSCAASGFPVGQQHMYWYRQAPGKEREWVAAIYSYGHITKYADSVKGRFTISRDNAKNTVYLQMNSLKPEDTAVYYCWVYVGDYYEGQGTQVTVS | binds
10 | Sybody 10 (VHH) VHH: QVQLVESGGGLVQAGGSLRLSCAASGFPVESAEMEWYRQAPGKEREWVAAITSQGTITEYADSVKGRFTISRDNAKNTVYLQMNSLKPEDTAVYYCYVYVGASYIGQGTQVTVS | binds
11 | Sybody 11 (VHH) VHH: QVQLVESGGGLVQAGGSLRLSCAASGFPVRTENMHWYRQAPGKEREWVAAIYSFGATMLYADSVKGRFTISRDNAKNTVYLQMNSLKPEDTAVYYCAVNVGEWYEGQGTQVTVS | binds
12 | Sybody 13 (VHH) VHH: QVQLVESGGGLVQAGGSLRLSCAASGFPVENYYMRWYRQAPGKEREWVAAIESSGAETRYADSVKGRFTISRDNAKNTVYLQMNSLKPEDTAVYYCYVVVGWGYAGQGTQVTVS | binds
13 | Sybody 14 (VHH) VHH: QVQLVESGGGLVQAGGSLRLSCAASGFPVATAEMVWYRQAPGKEREWVAAIMSAGQETEYADSVKGRFTISRDNAKNTVYLQMNSLKPEDTAVYYCYVWVGKSYIGQGTQVTVS | binds
14 | Sybody 15 (VHH) VHH: QVQLVESGGGLVQAGGSLRLSCAASGFPVYEHYMRWYRQAPGKEREWVAAIQSHGNHTAYADSVKGRFTISRDNAKNTVYLQMNSLKPEDTAVYYCFVVVGNGYTGQGTQVTVS | binds
15 | Sybody 16 (VHH) VHH: QVQLVESGGGLVRAGGSLRLSCAASGFPVASQEMTWYRQAPGKEREWVAAISSSGRQTEYADSVKGRFTISRDNAKNTVYLQMNSLKPEDTAVYYCYVYVGGSYIGQGTQVTVS | binds
16 | Sybody 17 (VHH) VHH: QVQLVESGGGLVQAGGSLRLSCAASGFPVKASEMEWYRQAPGKEREWVAAIASIGYNTYYADSVKGRFTISRDNAKNTVYLQMNSLKPEDTAVYYCLVYVGATYIGQGTQVTVS | binds
17 | 18 (VHH) VHH: QVQLVESGGGLVQAGGSLRLSCAASGFPVDYKSMWWYRQAPGKEREWVAAIDSAGDTTTYADSVKGRFTISRDNAKNTVYLQMNSLKPEDTAVYYCTVWVGTTYTGQGTQVTVS | binds

Row | Binder | binding result
18 | 19 (VHH) VHH: QVQLVESGGGLVQAGGSLRLSCAASGFPVYNEEMTWYRQAPGKEREWVAAIASYGRLTEYADSVKGRFTISRDNAKNTVYLQMNSLKPEDTAVYYCYVYVGQSYIGQGTQVTVS | binds
19 | 21 (VHH) VHH: QVQLVESGGGLVQAGGSLRLSCAASGFPVKESEMTWYRQARGKEREWVAAINSHGMTTHYADSVKGRFTISRDNAKNTVYLQMNSLKPEDTAVYYCYVYVGGSYIGQGTQVTVS | binds
20 | 22 (VHH) VHH: QVQLVESGGGLVQAGGSLRLSCAASGFPVNHYEMEWYRQAPGREREWVAAIMDSTGYETAYADSVKGRFTISRDNAKNTVYLQMNSLKPEDTAVYYCYVYVGASYIGQGTQVTVS | binds
21 | 24 (VHH) VHH: QVQLVESGGGLVQAGGSLRLSCAASGFPVSTAEMEWYRQAPGKEREWVAAISSSGTWTYYADSVKGRFTISRDNAKNTVYLQMNSLKPEDTAVYYCYVWVGSSYLGQGTQVTVS | binds
22 | 25 (VHH) VHH: QVQLVESGGGLVQAGGSLRLSCAASGFPVESTEMTWYRQAPGKEREWVAAIESEGHGTEYADSVKGRFTISRDNAKNTVYLQMNSLKPEDTAVYYCYVYVGAGYIGQGTQVTVS | binds
23 | 27 (VHH) VHH: QVQLVESGGGLVQAGGSLRLSCAASGFPVKASEMVWYRQAPGKEREWVAAILSQGHATEYADSVKGRFTISRDNAKNTVYLQMNSLKPEDTAVYYCYVWVGRSYIGQGTQVTVS | binds
24 | 28 (VHH) VHH: QVQLVESGGGLVQAGGSLRLSCAASGFPVYSAEMEWYRQAPGKEREWVAAISSYGTNTYYADSVKGRFTISRDNAKNTVYLQMNSLKPEDTAVYYCYVYVGSSYIGQGTQVTVS | binds
25 | 29 (VHH) VHH: QVQLVESGGGLVQAGGSLRLSCAASGFPVHYTYMRWYRQAPGKEREWVAAIKSYGQHTTYADSVKGRFTISRDNAKNTVYLQMNSLKPEDTAVYYCEVVGETYRGQGTQVTVS | binds
26 | 30 (VHH) VHH: QVQLVESGGGLVQAGGSLRLSCAASGFPVWYKEMEWYRQAPGKEREWVAAITSAGHHTYYADSVKGRFTISRDNAKNTVYLQMNSLKPEDTAVYYCYVYVGESYIGQGTQVTVS | binds
27 | 31 (VHH) VHH: QVQLVESGGGLVQAGGSLRLSCAASGFPVWSAEMTWYRQAPGKEREWVAAINSHGRITEYADSVKGRFTISRDNAKNTVYLQMNGLKPEDTAVYYCYVYVGKSYIGQGTQVTVS | binds
28 | 32 (VHH) VHH: QVQLVESGGGLVQAGGSLRLSCAASGFPVAHKSMWWYRQAPGKEREWVAAIESTGDTTRYADSVKGRFTISRDNAKNTVYLQMNSLKPEDTAVYYCVVWVGEVYRGQGTQVTVS | binds
29 | 33 (VHH) VHH: QVQLVESGGGLVQAGGSLRLSCAASGFPVKTAEMEWYRQAPGKEREWVAAISSTGKSTFYADSVKGRFTISRDNAKNTVYLQMNSLKPEDTAVYYCHVYVGRTYIGQGTQVTVS | binds
30 | 35 (VHH) VHH: QVQLVESGGGLVQAGGSLRLSCAASGFPVNYTIMFWYRQAPGKEREWVAAIKSTGEHTLYADSVKGRFTISRDNAKNTVYLQMNSLKPEDTAVYYCNVKDAGQGWQEYDYWGQGTQVTVS | binds
31 | 36 (VHH) VHH: QVQLVESGGGLVQAGGSLRLSCAASGFPVEWKHMTWYRQAPGKEREWVAAIASTGAYTHYADSVKGRFTISRDNAKNTVYLQMNSLKPEDTAVYYCNVKDWGSKTTYYDYWGQGTQVTVS | binds
32 | 37 (VHH) VHH: QVQLVESGGGLVQAGGSLRLSCAASGFPVYNTWMEWYRQAPGKEREWVAAITSYGFHTYYADSVKGRFTISRDNAKNTVYLQMNSLKPEDTAVYYCNVKDEGNTTAYYDYWGQGTQVTVS | binds
33 | 38 (VHH) VHH: QVQLVESGGGLVQAGGSLRLSCAASGFPVYWAHMTWYRQAPGKEREWVAAIVSSGAYTAYADSVKGRFTISRDNAKNTVYLQMNSLKPEDTAVYYCNVKDFGTQEHYYDYWGQGTQVTVS | binds
34 | 39 (VHH) VHH: QVQLVESGGGPVQAGGSLRLSCAASGFPVMWSHMHWYRQAPGKEREWVAAIVSYGAYTIYADSVKGRFTISRDNAKNTVYLQMNSLKPEDTAVYYCNVKDFGGYRYYYDYWGQGTQVTVS | binds
